Experimental data as given in paper PMC12152161.
Positions count from the first letter of the chain named. In names and notes the source's numbering stands.

Assays:
[1] = molecular target: T1, full-length KIF1C(WT)−Flag−EGFP (UniProt O43896)
T1 sequence: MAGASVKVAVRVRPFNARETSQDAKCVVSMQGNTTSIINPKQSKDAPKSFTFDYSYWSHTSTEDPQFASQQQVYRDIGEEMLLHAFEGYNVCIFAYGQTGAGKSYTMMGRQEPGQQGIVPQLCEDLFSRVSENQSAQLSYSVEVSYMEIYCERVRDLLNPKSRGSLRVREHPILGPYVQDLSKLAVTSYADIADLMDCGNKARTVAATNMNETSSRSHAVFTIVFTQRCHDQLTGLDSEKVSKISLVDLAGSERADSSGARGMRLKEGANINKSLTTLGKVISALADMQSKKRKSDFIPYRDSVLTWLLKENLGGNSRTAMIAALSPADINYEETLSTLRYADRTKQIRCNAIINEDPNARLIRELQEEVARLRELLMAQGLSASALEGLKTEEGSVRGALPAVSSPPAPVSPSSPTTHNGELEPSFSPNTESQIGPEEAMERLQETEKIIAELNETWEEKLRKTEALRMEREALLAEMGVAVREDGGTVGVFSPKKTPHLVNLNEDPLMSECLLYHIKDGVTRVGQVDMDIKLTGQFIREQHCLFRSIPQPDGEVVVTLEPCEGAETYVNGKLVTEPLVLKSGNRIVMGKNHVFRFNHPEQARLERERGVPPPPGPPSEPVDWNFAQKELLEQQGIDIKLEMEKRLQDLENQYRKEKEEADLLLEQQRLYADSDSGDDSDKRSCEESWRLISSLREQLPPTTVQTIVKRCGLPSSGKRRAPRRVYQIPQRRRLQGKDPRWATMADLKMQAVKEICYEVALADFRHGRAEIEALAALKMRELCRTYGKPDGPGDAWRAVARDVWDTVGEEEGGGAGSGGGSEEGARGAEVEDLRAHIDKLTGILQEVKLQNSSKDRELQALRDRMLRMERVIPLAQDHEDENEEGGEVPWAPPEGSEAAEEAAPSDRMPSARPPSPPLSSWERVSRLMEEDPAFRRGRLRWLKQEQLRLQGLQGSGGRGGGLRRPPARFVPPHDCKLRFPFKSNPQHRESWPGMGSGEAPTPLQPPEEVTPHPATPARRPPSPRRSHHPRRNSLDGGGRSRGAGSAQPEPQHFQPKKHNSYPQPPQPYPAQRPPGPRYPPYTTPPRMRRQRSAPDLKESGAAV

[2] = molecular target: T2, full-length KIF1C(Y757A ∙ F764A)−Flag−EGFP (UniProt O43896)
T2 sequence: T1 sequence with Y757A, F764A

B1: full-length Hook3(V614E)−Myc−FuRed (natural protein)
chain: MFSVESLERAELCESLLTWIQTFNVDAPCQTVEDLTNGVVMAQVLQKIDPAYFDENWLNRIKTEVGDNWRLKISNLKKILKGILDYNHEILGQQINDFTLPDVNLIGEHSDAAELGRMLQLILGCAVNCEQKQEYIQAIMMMEESVQHVVMTAIQELMSKESPVSAGNDAYVDLDRQLKKTTEELNEALSAKEEIAQRCHELDMQVAALQEEKSSLLAENQVLMERLNQSDSIEDPNSPAGRRHLQLQTQLEQLQEETFRLEAAKDDYRIRCEELEKEISELRQQNDELTTLADEAQSLKDEIDVLRHSSDKVSKLEGQVESYKKKLEDLGDLRRQVKLLEEKNTMYMQNTVSLEEELRKANAARSQLETYKRQVVELQNRLSEESKKADKLDFEYKRLKEKVDSLQKEKDRLRTERDSLKETIEELRCVQAQEGQLTTQGLMPLGSQESSDSLAAEIVTPEIREKLIRLQHENKMLKLNQEGSDNEKIALLQSLLDDANLRKNELETENRLVNQRLLEVQSQVEELQKSLQDQGSKAEDSVLLKKKLEEHLEKLHEANNELQKKRAIIEDLEPRFNNSSLKIEELQEALRKKEEEMKQMEERYKKYLEKAKSEIRTLDPKQNQGAAPEIQALKNQLQERDRLFHSLEKEYEKTKSQREMEEKYIVSAWYNMGMTLHKKAAEDRLASTGSGQSFLARQRQATSSRRSYPGHVQPATAR
A tail/cytoplasm ratio of Hook3−Myc−FuRed upon co-expression in RPE1 cells, 16 h post transfection (tail/cytoplasm ratio) [1] of 0.7 and a tail/cytoplasm ratio of Hook3−Myc−FuRed upon co-expression in RPE1 cells, 16 h post transfection (tail/cytoplasm ratio) [2] of 0.7 were found for B1 in this work.

B2: full-length Hook3(WT)−Myc−FuRed (natural protein)
chain: B1 chain with E614V
A tail/cytoplasm ratio of Hook3−Myc−FuRed upon co-expression in RPE1 cells, 16 h post transfection (tail/cytoplasm ratio) [2] of 0.7 was found for B2 in this work.
